Patent US20200199241A1 (Chugai, published 2020)
Substitutions are numbered along the chain they refer to. In names and notes the source's numbering stands.

B1: IgG1-F480 (antibody)
heavy: QVQLQESGPGLVKPSETLSLTCAVSGHSISHDHAWSWVRQPPGEGLEWIGFISYSGITNYNPSLQGRVTISRDNSKNTLYLQMNSLRAEDTAVYYCARSLARTTAMDYWGEGTLVTVSSASTKGPSVFPLAPSSKSTSGGTAALGCLVKDYFPEPVTVSWNSGALTSGVHTFPAVLQSSGLYSLSSVVTVPSSSLGTQTYICNVNHKPSNTKVDKKVEPKSCDKTHTCPPCPAPELLGGPSVFLFPPKPKDTLMISRTLEVTCVVVDVSHEDPEVKFNWYVDGVEVHNAKTKPREEQYNSTYRVVSVLTPLHQDWLNGKEYKCKVSNKALPAPIEKTISKAKGQPREPQVYTLPPSRDELTKNQVSLTCLVKGFYPSDIAVEWESNGQPENNYKTTPPVLDSDGSFFLYSKLTVDKSRWQQGNVFSCSVMHEALHYHYTQKSLSLSP
light: not shown
notes: EU numbering; copies: 2 + 2
B2: IgG1-F488 (antibody)
heavy: B1 heavy with L259V, N327G, M430L
light: not shown
notes: EU numbering; copies: 2 + 2
B3: IgG1-F509 (antibody)
heavy: B1 heavy with L259V, T309Q, P310V, N386A, M430L
light: not shown
notes: EU numbering; copies: 2 + 2
B4: IgG1-F481 (antibody)
heavy: B1 heavy with L259T, T309Q, P310V
light: not shown
notes: EU numbering; copies: 2 + 2
B5: IgG1-F518 (antibody)
heavy: B1 heavy with L259T, N288E, P310V
light: not shown
notes: EU numbering; copies: 2 + 2
B6: IgG1-F485 (antibody)
heavy: B1 heavy with L259V, N288E, T309A, P310V
light: not shown
notes: EU numbering; copies: 2 + 2
B7: IgG1-F482 (antibody)
heavy: B1 heavy with L259V, T309Q, P310V, N327G
light: not shown
notes: EU numbering; copies: 2 + 2
B8: IgG1-F497 (antibody)
heavy: B1 heavy with L259T, T309A, P310V, M430V
light: not shown
notes: EU numbering; 'N428V' as printed, probably M428V; copies: 2 + 2
B9: IgG1-F510 (antibody)
heavy: B1 heavy with L259V, T309Q, P310V, N391A, M430L
light: not shown
notes: EU numbering; copies: 2 + 2
B10: IgG1-F517 (antibody)
heavy: B1 heavy with L259V, N288E, P310V
light: not shown
notes: EU numbering; copies: 2 + 2
B11: IgG1-F493 (antibody)
heavy: B1 heavy with S241K, L259P, D272F, T309P, P310V, N327G, M430Y
light: not shown
notes: EU numbering; copies: 2 + 2
B12: IgG1-F486 (antibody)
heavy: B1 heavy with L259V, T309Q, P310V, L311R, Q313H, M430L
light: not shown
notes: EU numbering; copies: 2 + 2
B13: IgG1-F499 (antibody)
heavy: B1 heavy with L259A, T309A, P310V, M430V
light: not shown
notes: EU numbering; copies: 2 + 2
B14: IgG1-F498 (antibody)
heavy: B1 heavy with L259A, P310V, M430V
light: not shown
notes: as for B8
B15: IgG1-F500 (antibody)
heavy: B1 heavy with L259S, T309Q, P310V, M430L
light: not shown
notes: EU numbering; copies: 2 + 2
B16: IgG1-F483 (antibody)
heavy: B1 heavy with L259V, T309Q, P310V, Q313A
light: not shown
notes: EU numbering; copies: 2 + 2
B17: IgG1-F508 (antibody)
heavy: B1 heavy with L259V, T309Q, P310V, N317A, M430L
light: not shown
notes: EU numbering; copies: 2 + 2
B18: IgG1-F507 (antibody)
heavy: B1 heavy with L259V, N288A, T309Q, P310V, M430L
light: not shown
notes: EU numbering; copies: 2 + 2
B19: IgG1-F506 (antibody)
heavy: B1 heavy with L259V, N299A, T309Q, P310V, M430L
light: not shown
notes: EU numbering; copies: 2 + 2
B20: IgG1-F519 (antibody)
heavy: B1 heavy with L259V, N288E, T309Q, P310V
light: not shown
notes: EU numbering; copies: 2 + 2
B21: IgG1-F484 (antibody)
heavy: B1 heavy with L259V, V307A, T309Q, P310V
light: not shown
notes: EU numbering; copies: 2 + 2
B22: IgG1-F490 (antibody)
heavy: B1 heavy with S241K, L259V, Q313H, M430L
light: not shown
notes: EU numbering; copies: 2 + 2

The binders below were run against T1, human FcRn (soluble human FcRn complexed with β2-microglobulin) (human, UniProt P61769 21-119, limits assumed) (assay: SPR, pH 7.0;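 further: antibodies captured on a Protein L sensor chip with human FcRn injected as analyte, KD calculated from fitted association and dissociation rate constants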).
T1 construct: also called hFcRn
T1 sequence (chain, as listed by the source limits assumed, chain 1 of 2): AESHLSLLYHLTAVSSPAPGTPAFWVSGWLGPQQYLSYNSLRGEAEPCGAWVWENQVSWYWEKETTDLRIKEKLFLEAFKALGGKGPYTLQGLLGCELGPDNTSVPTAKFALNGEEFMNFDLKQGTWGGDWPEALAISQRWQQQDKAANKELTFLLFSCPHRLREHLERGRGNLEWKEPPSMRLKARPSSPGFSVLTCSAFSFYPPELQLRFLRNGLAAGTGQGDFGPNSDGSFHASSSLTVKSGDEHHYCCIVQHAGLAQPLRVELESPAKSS
T1 sequence (P61769 21-119 limits assumed, chain 2 of 2): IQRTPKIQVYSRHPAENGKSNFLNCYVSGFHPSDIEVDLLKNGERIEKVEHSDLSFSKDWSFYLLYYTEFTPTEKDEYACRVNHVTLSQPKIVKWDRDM
B1 showed a Kd of 39 nM.
For B2, the Kd was 35 nM.
B3 was tested, and the Kd was 58 nM.
Binder B4 has a Kd of 56 nM.
Binder B5 has a Kd of 420 nM.
For B6, the Kd was 97 nM.
B7 was tested, and the Kd was 70 nM.
B8 was tested, and the Kd was 3100 nM.
B9 gave a Kd of 53 nM.
For B10, the Kd was 310 nM.
B11 gave a Kd of 490 nM.
For B12, the Kd was 340 nM.
With B13 the Kd was 520 nM.
For B14, the Kd was 1300 nM.
In the case of B15, the Kd is reported as 43 nM.
B16 was tested, and the Kd was 57 nM.
With B17 the Kd was 110 nM.
In the case of B18, the Kd is reported as 51 nM.
Binder B19 has a Kd of 190 nM.
Binder B20 has a Kd of 26 nM.
B21 showed a Kd of 62 nM.
In the case of B22, the Kd is reported as 75 nM.
